# Test results: article PMC11850232
# Where “and” joins values, the source holds several entries; their conditions need not be identical. Equal entries are not always repeated.
# Tests used:
# [1] = biological target: Tilapia Lake virus nucleoprotein (TiLV-NP) (Tilapia Lake virus); experiment: mass photometry; RNA-bound TiLV-NP (40-mer vRNA loop) at 25 nM TiLV-NP; 50 mM HEPES pH 8, 150 mM NaCl, 2 mM TCEP
# [2] = biological target: Tilapia Lake virus nucleoprotein (TiLV-NP) (Tilapia Lake virus); experiment: SEC-MALS; apo TiLV-NP injected at 5 and 3 mg/ml; Superdex 200 Increase 10/300 GL; 50 mM HEPES pH 8, 150 mM NaCl, 2 mM TCEP
# [3] = biological target: Tilapia Lake virus nucleoprotein (TiLV-NP) (Tilapia Lake virus); experiment: cryo-EM structure
# [4] = biological target: Tilapia Lake virus nucleoprotein (TiLV-NP) (Tilapia Lake virus); experiment: mass photometry; RNA-bound TiLV-NP (40-mer vRNA loop) at 25 nM TiLV-NP; 50 mM HEPES pH 8, 150 mM NaCl, 2 mM TCEP; remark: listed apart in the source
# [5] = biological target: Tilapia Lake virus nucleoprotein (TiLV-NP) (Tilapia Lake virus); experiment: mass photometry; apo TiLV-NP at 25 nM; 50 mM HEPES pH 8, 150 mM NaCl, 2 mM TCEP
substance,measurement,setting,value
Tilapia Lake virus nucleoprotein (TiLV-NP) (natural protein),stoichiometry N,[1],5 and 6
same,stoichiometry N,[2],3 and 4
same,stoichiometry N,[3],4 and 5 and 6
same,stoichiometry N,[4],3 and 4
same,stoichiometry N,[5],3 and 4 and 5
